Assay results from patent publication US20230174651A1.

Tests used:
[1] = target: CD79b CAR with CD8α hinge as the spacer; test: flow cytometry, Jurkat cells transduced with construct CAR-6, fluorescently labelled second antibody; gate set on untransduced (UTD) cells
Target sequence (P01732 138-182): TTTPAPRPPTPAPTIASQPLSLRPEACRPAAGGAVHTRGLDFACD

[2] = target: CD79b CAR with CD8α hinge as the spacer; test: flow cytometry, Jurkat cells transduced with construct CAR-2, fluorescently labelled second antibody; gate set on untransduced (UTD) cells
[3] = target: CD79b CAR with CD8α hinge as the spacer; test: flow cytometry, Jurkat cells transduced with construct CAR-4, fluorescently labelled second antibody; gate set on untransduced (UTD) cells
[4] = target: CD79b CAR with CD8α hinge as the spacer; test: flow cytometry, Jurkat cells transduced with construct CAR-3, fluorescently labelled second antibody; gate set on untransduced (UTD) cells
[5] = target: CD79b CAR with CD8α hinge as the spacer; test: flow cytometry, Jurkat cells transduced with construct CAR-1, fluorescently labelled second antibody; gate set on untransduced (UTD) cells
[6] = target: CD79b CAR with CD8α hinge as the spacer; test: flow cytometry, Jurkat cells transduced with construct CAR-5, fluorescently labelled second antibody; gate set on untransduced (UTD) cells

% positive (CAR+ Jurkat cells) [1]: 84%
% positive (CAR+ Jurkat cells) [2]: 41.7%
% positive (CAR+ Jurkat cells) [3]: 54.1%
% positive (CAR+ Jurkat cells) [4]: 15.9%
% positive (CAR+ Jurkat cells) [5]: 13%
% positive (CAR+ Jurkat cells) [6]: 84.5%
B1: mouse FC version of CD8B575 (purified from mouse hybridoma clone) (antibody, V domains shown)
VH: QVQLQQSGGGLVQPGGSLKLSCAASGFTFSNYYMSWARQTPEKRLEWVAYISNDGDATYYPDSVKGRFTISRDNAKNTLYLQMSSLKSEDTAMYYCTREDYYSDYWFASWGQGTTVTVSS
VL: DIVMTQSQKFMSTTIEDRVSITCKASQNVGTAVAWYQQKPGQSPKLLIYSTSNRYTGVPDRFTGSGSGTDFTLTISNIQSEDLADYFCQQYSSYPLTFGGGTKLEIK
